± gives the standard deviation of the averaged measurements.
Test system: Saccharomyces cerevisiae
Assay: protein stability index of tFT-peptide fusion (C-terminal peptide) (PSI (0-1 scale)); higher = more stable (slower turnover)
Conditions: temperature: 30 C
Procedure: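 MPS profiling in S. cerevisiae of the yeast C-terminome library: the last 12 aa of each annotated ORF are fused to the C-terminus of a sfGFP-mCherry timer, after a GGGS linker. Cells are FACS-sorted into 8 mCherry/sfGFP bins and deep-sequenced. PSI runs from 0 (unstable) to 1 (stable); wild type and das1Δ backgrounds, two technical replicates each.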

[1] = genetic background: das1 deletion

Sequence: KCLYVQVITKSN [ECM8 C-terminal 12 aa]
- protein stability index [1]: 0.5487 ± 0.0052
- protein stability index (genetic background: wild type): 0.256 ± 0.019

Sequence: KDNTVDIYDVNG [TGS1 C-terminal 12 aa]
- protein stability index [1]: 0.687 ± 0.023
- protein stability index (genetic background: wild type): 0.682 ± 0.013

Sequence: KEYISDQRKKRK [LOA1 C-terminal 12 aa]
- protein stability index [1]: 0.6823 ± 0.00078
- protein stability index (genetic background: wild type): 0.722 ± 0.023

Sequence: KFLRYNPLEKRD [RPB10 C-terminal 12 aa]
- protein stability index [1]: 0.693 ± 0.012
- protein stability index (genetic background: wild type): 0.704 ± 0.02

Sequence: KFNLVTQRENSL [YGR025W C-terminal 12 aa]
- protein stability index [1]: 0.697 ± 0.021
- protein stability index (genetic background: wild type): 0.695 ± 0.026

Sequence: KGGEDGSLVSSN [NHP10 C-terminal 12 aa]
- protein stability index [1]: 0.688 ± 0.014
- protein stability index (genetic background: wild type): 0.709 ± 0.011

Sequence: KGGLEGWVKSQL [LYS4 C-terminal 12 aa]
- protein stability index [1]: 0.808 ± 0.018
- protein stability index (genetic background: wild type): 0.811 ± 0.074

Sequence: KGRALENLPDES [SSM4 C-terminal 12 aa]
- protein stability index [1]: 0.675 ± 0.016
- protein stability index (genetic background: wild type): 0.692 ± 0.032

Sequence: KICEVAARQKWI [AAN1 C-terminal 12 aa]
- protein stability index [1]: 0.6888 ± 0.0048
- protein stability index (genetic background: wild type): 0.627 ± 0.02

Sequence: KIEVSSQESWGN [HSP26 C-terminal 12 aa]
- protein stability index [1]: 0.68 ± 0.0024
- protein stability index (genetic background: wild type): 0.693 ± 0.037

Sequence: KINYDAIDGLFR [BRF1 C-terminal 12 aa]
- protein stability index [1]: 0.71 ± 0.013
- protein stability index (genetic background: wild type): 0.681 ± 0.014

Sequence: KKGLLHKLKKKL [IST2 C-terminal 12 aa]
- protein stability index [1]: 0.7257 ± 0.0041
- protein stability index (genetic background: wild type): 0.668 ± 0.045

Sequence: KKGRQERKLANR [PPZ2 C-terminal 12 aa]
- protein stability index [1]: 0.689 ± 0.026
- protein stability index (genetic background: wild type): 0.683 ± 0.029

Sequence: KKKANIPKAKSA [HUT1 C-terminal 12 aa]
- protein stability index [1]: 0.706 ± 0.0094
- protein stability index (genetic background: wild type): 0.686 ± 0.013

Sequence: KKKFSFFGKRKK [PAM1 C-terminal 12 aa]
- protein stability index [1]: 0.684 ± 0.017
- protein stability index (genetic background: wild type): 0.704 ± 0.048

Sequence: KKKFYKQYHFDL [PDR8 C-terminal 12 aa]
- protein stability index [1]: 0.715 ± 0.016
- protein stability index (genetic background: wild type): 0.727 ± 0.035

Sequence: KKKNKNKGKKKR [SRP21 C-terminal 12 aa]
- protein stability index [1]: 0.6857 ± 0.006
- protein stability index (genetic background: wild type): 0.719 ± 0.048

Sequence: KKKSRMFSFRKS [UBP13 C-terminal 12 aa]
- protein stability index [1]: 0.702 ± 0.011
- protein stability index (genetic background: wild type): 0.709 ± 0.048

Sequence: KKNDTPKPKPLK [SFC1 C-terminal 12 aa]
- protein stability index [1]: 0.7063 ± 0.00074
- protein stability index (genetic background: wild type): 0.678 ± 0.01

Sequence: KKNRSGLRHSES [SQS1 C-terminal 12 aa]
- protein stability index [1]: 0.683 ± 0.011
- protein stability index (genetic background: wild type): 0.6606 ± 0.0038

Sequence: KKPFDKKPKFNI [YKU70 C-terminal 12 aa]
- protein stability index [1]: 0.727 ± 0.024
- protein stability index (genetic background: wild type): 0.686 ± 0.017

Sequence: KLCTGIVWAPRV [YAR070C C-terminal 12 aa]
- protein stability index [1]: 0.681 ± 0.0084
- protein stability index (genetic background: wild type): 0.7035 ± 0.0022

Sequence: KLDIPVSFLLAA [YBL053W C-terminal 12 aa]
- protein stability index [1]: 0.443 ± 0.0065
- protein stability index (genetic background: wild type): 0.467 ± 0.044

Sequence: KLKFLQNTYNND [CCE1 C-terminal 12 aa]
- protein stability index [1]: 0.674 ± 0.015
- protein stability index (genetic background: wild type): 0.635 ± 0.0079

Sequence: KLLGIFPNLSNF [YLL054C C-terminal 12 aa]
- protein stability index [1]: 0.70477 ± 0.00046
- protein stability index (genetic background: wild type): 0.358 ± 0.0064

Sequence: KLYNYLLSIEVY [YLR123C C-terminal 12 aa]
- protein stability index [1]: 0.144 ± 0.013
- protein stability index (genetic background: wild type): 0.191 ± 0.0098

Sequence: KMDKRAKNSDSA [RPL8A C-terminal 12 aa]
- protein stability index [1]: 0.691 ± 0.0034
- protein stability index (genetic background: wild type): 0.6886 ± 0.0018

Sequence: KMLDALKNERKK [HTL1 C-terminal 12 aa]
- protein stability index [1]: 0.716 ± 0.015
- protein stability index (genetic background: wild type): 0.673 ± 0.038

Sequence: KMPLVPTHYYKQ [GCV1 C-terminal 12 aa]
- protein stability index [1]: 0.706 ± 0.0089
- protein stability index (genetic background: wild type): 0.6559 ± 0.00066

Sequence: KNEQDEDKWDDF [GCS1 C-terminal 12 aa]
- protein stability index [1]: 0.729 ± 0.031
- protein stability index (genetic background: wild type): 0.672 ± 0.014

Sequence: KNIKRDLRNVRI [TAX4 C-terminal 12 aa]
- protein stability index [1]: 0.7 ± 0.045
- protein stability index (genetic background: wild type): 0.6514 ± 0.0059

Sequence: KNRYLHLLEQHK [BET4 C-terminal 12 aa]
- protein stability index [1]: 0.692 ± 0.018
- protein stability index (genetic background: wild type): 0.67 ± 0.04

Sequence: KPLLTSIFPNHK [YBL012C C-terminal 12 aa]
- protein stability index [1]: 0.718 ± 0.064
- protein stability index (genetic background: wild type): 0.667 ± 0.0098

Sequence: KPLYYRIYRFFC [MMP1 C-terminal 12 aa]
- protein stability index [1]: 0.764 ± 0.013
- protein stability index (genetic background: wild type): 0.537 ± 0.0091

Sequence: KQIAKQSSKMMK [VMR1 C-terminal 12 aa]
- protein stability index [1]: 0.686 ± 0.0041
- protein stability index (genetic background: wild type): 0.708 ± 0.03

Sequence: KQKKQQAQPLRK [VRG4 C-terminal 12 aa]
- protein stability index [1]: 0.704 ± 0.012
- protein stability index (genetic background: wild type): 0.673 ± 0.026

Sequence: KQLQEGNRRHKL [DCI1 C-terminal 12 aa]
- protein stability index [1]: 0.768 ± 0.0084
- protein stability index (genetic background: wild type): 0.808 ± 0.15

Sequence: KSEEAKKRTSLY [YBR124W C-terminal 12 aa]
- protein stability index [1]: 0.694 ± 0.013
- protein stability index (genetic background: wild type): 0.679 ± 0.023

Sequence: KSLFSIIDDLQS [MSH6 C-terminal 12 aa]
- protein stability index [1]: 0.731 ± 0.0073
- protein stability index (genetic background: wild type): 0.727 ± 0.021

Sequence: KTFWDKFWNVVA [CAN1 C-terminal 12 aa]
- protein stability index [1]: 0.735 ± 0.03
- protein stability index (genetic background: wild type): 0.193 ± 0.014

Sequence: KTGKSSVIDLQR [GCN2 C-terminal 12 aa]
- protein stability index [1]: 0.712 ± 0.031
- protein stability index (genetic background: wild type): 0.726 ± 0.11

Source: the supplement of paper PMC10724198
